Test results reported in patent US20190185530A1 (WESTFAELISCHE WILHELMS UNIVERSITAET MUENSTER, published 2019).
Each block holds one binder with its values, some of them ahead of it.

B4: human S100A8 protein of Uniprot accession no. P05109 (recombinant) (other)
chain: LTELEKALNSIIDVYHKYSLIKGNFHAVYRDDLKKLLETECPQYIRKKGADVWFKELDINTDGAVNFQEFLILVIKMGVAAHKKSHEESHKE
notes: Recombinant; also called recS100A8

Key:
[1] = molecular target: B4; assay: ESI-MS, native conditions
[2] = molecular target: B4; assay: glycerol density gradient centrifugation with EGTA, SDS-PAGE of fractions
Procedure: (§1) FIG. 7: Density gradient centrifugation of S100A8/S100A9 proteins. wt and mutant recS100A8/S100A9 complexes were loaded on a glycerol gradient in the presence of either 1 mM EGTA or 100 μM Ca2+. After centrifugation, successive fractions of the gradients were analyzed by SDS-PAGE. […] Addition of calcium induced a marked shift for recS100A8/S100A9 wt to higher glycerol densities, whereas for the mutant complexes recS100A8/S100A9(N69A) and recS100A8/S100A9(E78A) no shift was observed.

[3] = molecular target: T1, human S100A9 protein of Uniprot accession no. P06702 (recombinant, wild type) (human, UniProt P06702 2-114); assay: MALDI-MS, native conditions, without calcium
T1 construct: Recombinant; also called recS100A9; S100A9 wt
T1 sequence: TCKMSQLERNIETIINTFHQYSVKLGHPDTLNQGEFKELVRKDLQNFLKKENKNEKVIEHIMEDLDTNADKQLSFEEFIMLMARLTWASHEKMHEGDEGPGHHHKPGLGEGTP
Source text: (§2) FIG. 5: MALDI mass spectra in the absence and presence of calcium under native solvent conditions. (a) MALDI mass spectra of recS100A8/S100A9 wt complexes in the absence (left) and presence (right) of calcium using 2,6-dihydroxy-acetophenone as matrix. The mass spectra between m/z 20,000 and 100,000 together with an inset between m/z 46,000 and 50,000 are shown. T⁺, singly charged; T²⁺, doubly charged; T³⁺, triply charged tetramer. (b) MALDI mass spectra of recS100A8/S100A9(N69A) mutant complexes in the absence (left) and presence (right) of calcium.
S100A8 and S100A9 exist as heterodimers in the absence of calcium, and these heterodimeric complexes associate to (S100A8/S100A9)₂ tetramers upon calcium-binding. […] In the absence of calcium, samples show intense signals of singly charged heterodimers. […] Other prominent signals are detected at molecular masses of around 24 kDa and 16 kDa, representing doubly charged (T2+) or triply charged (T3+) tetramers in accordance with results reported earlier for the native proteins purified from human granulocytes. The number of Ca2+ bound to the tetramers was calculated from the difference between the observed masses of the tetramers and the sum of the calculated theoretical molecular masses of the monomeric components.

[4] = molecular target: the molecule itself; assay: MALDI-MS, native conditions, with calcium (heterodimer to heterodimer)
Source text: as §2

[5] = molecular target: the molecule itself; assay: glycerol density gradient centrifugation with calcium, SDS-PAGE of fractions (heterodimer to heterodimer)
Procedure: as §1

[6] = molecular target: the molecule itself; assay: glycerol centrifugation with EGTA, Bradford assay of fractions (homodimer)
Procedure: FIG. 8: Glycerol centrifugation of S100A12 proteins. Wild type (wt) and mutant recS100A12 complexes were loaded on a 15% glycerol solution in the presence of either EGTA or Ca²⁺ or Zn²⁺ or Ca²⁺/Zn²⁺. Buffer conditions were 20 mM HEPES, 140 mM NaCl, pH 7.4. After centrifugation, successive fractions of the gradients were analyzed by the colorimetric assay Bradford. […] Addition of calcium or zinc alone induced no shift for wtS100A12 to higher glycerol fractions. Addition of calcium plus zinc induced a marked shift for wtS100A12 to higher glycerol fractions, whereas for the mutant complex recS100A12(E73A) no shift was observed. FIG. 8A: Protein concentrations of collected fractions determined by Bradford assay. Sample A: S100A12 wild type+2 mM EGTA, sample B S100A12 wild type+5 mM CaCl₂, sample C: S100A12 wild type+1 mM Zn, sample D S100A12 wild type+200 μM Zn, sample E: S100A12 wild type+5 mM CaCl₂+200 μM Zn, sample F: S100A12 wild type+2.5 mM CaCl₂+100 μM Zn FIG. 8B: Summary of collected and analysed fractions of wtS100A12 (see FIG. 8A) in the presence or absence of bivalent cations as indicated in the figure. FIG. 8C Summary of collected and analysed fractions of wtS100A12 and recS100A12E73A mutant in the presence (5 mM CaCl₂+200 μM Zn, 2.5 mM CaCl₂+100 μM Zn) or absence (2 mM EGTA) of bivalent cations as indicated in the figure.

binding result [1]: binds
B1: S100A9 (N69A+E78A), mutant of human S100A9 having a double Asn69→Ala and Glu78→Ala substitution (other)
chain: TCKMSQLERNIETIINTFHQYSVKLGHPDTLNQGEFKELVRKDLQNFLKKENKNEKVIEHIMEDLDTAADKQLSFEAFIMLMARLTWASHEKMHEGDEGPGHHHKPGLGEGTP

binding result [2]: binds
B2: S100A9 (E78A), mutant of human S100A9 having a single Glu78→Ala substitution (other)
chain: TCKMSQLERNIETIINTFHQYSVKLGHPDTLNQGEFKELVRKDLQNFLKKENKNEKVIEHIMEDLDTNADKQLSFEAFIMLMARLTWASHEKMHEGDEGPGHHHKPGLGEGTP

binding result [2]: binds
B3: S100A9 (N69A), mutant of human S100A9 having a single Asn69→Ala substitution (other)
chain: TCKMSQLERNIETIINTFHQYSVKLGHPDTLNQGEFKELVRKDLQNFLKKENKNEKVIEHIMEDLDTAADKQLSFEEFIMLMARLTWASHEKMHEGDEGPGHHHKPGLGEGTP

Binder: B4
binding result [3]: binds

B5: recS100A8/S100A9(N69A+E78A) mutant heterodimer (other)
chain 1: LTELEKALNSIIDVYHKYSLIKGNFHAVYRDDLKKLLETECPQYIRKKGADVWFKELDINTDGAVNFQEFLILVIKMGVAAHKKSHEESHKE
chain 2: TCKMSQLERNIETIINTFHQYSVKLGHPDTLNQGEFKELVRKDLQNFLKKENKNEKVIEHIMEDLDTAADKQLSFEAFIMLMARLTWASHEKMHEGDEGPGHHHKPGLGEGTP
notes: Heterodimer tested for association with itself into a tetramer
binding result [4]: no binding

B6: recS100A8/S100A9(N69A) mutant heterodimer (other)
chain 1: LTELEKALNSIIDVYHKYSLIKGNFHAVYRDDLKKLLETECPQYIRKKGADVWFKELDINTDGAVNFQEFLILVIKMGVAAHKKSHEESHKE
chain 2: TCKMSQLERNIETIINTFHQYSVKLGHPDTLNQGEFKELVRKDLQNFLKKENKNEKVIEHIMEDLDTAADKQLSFEEFIMLMARLTWASHEKMHEGDEGPGHHHKPGLGEGTP
notes: Heterodimer tested for association with itself into a tetramer; also called recS100A8/S100A9(N69A) mutant complexes
binding result [4]: no binding

B7: recS100A8/S100A9(E78A) mutant heterodimer (other)
chain 1: LTELEKALNSIIDVYHKYSLIKGNFHAVYRDDLKKLLETECPQYIRKKGADVWFKELDINTDGAVNFQEFLILVIKMGVAAHKKSHEESHKE
chain 2: TCKMSQLERNIETIINTFHQYSVKLGHPDTLNQGEFKELVRKDLQNFLKKENKNEKVIEHIMEDLDTNADKQLSFEAFIMLMARLTWASHEKMHEGDEGPGHHHKPGLGEGTP
notes: as for B5
binding result [4]: no binding

B8: recS100A8/S100A9 wt heterodimer (other)
chain 1: LTELEKALNSIIDVYHKYSLIKGNFHAVYRDDLKKLLETECPQYIRKKGADVWFKELDINTDGAVNFQEFLILVIKMGVAAHKKSHEESHKE
chain 2: TCKMSQLERNIETIINTFHQYSVKLGHPDTLNQGEFKELVRKDLQNFLKKENKNEKVIEHIMEDLDTNADKQLSFEEFIMLMARLTWASHEKMHEGDEGPGHHHKPGLGEGTP
notes: This heterodimer is the unit that joins with a second one to form the (S100A8/S100A9)2 tetramer when calcium is present; also called recS100A8/S100A9 wt complexes; wt S100A8/S100A9
binding result [5]: binds

B9: wild type human S100A12 protein (recombinant), single chain (other)
chain: TKLEEHLEGIVNIFHQYSVRKGHFDTLSKGELKQLLTKELANTIKNIKDKAVIDEIFQGLDANQDEQVDFQEFISLVAIALKAAHYHTHKE
notes: also called recS100A12 wt; wtS100A12
binding result [6]: binds
